# T1: LbuCas13a R377A (Leptotrichia buccalis, UniProt C7NBY4 SEQ:1-1159)
# T1 chain: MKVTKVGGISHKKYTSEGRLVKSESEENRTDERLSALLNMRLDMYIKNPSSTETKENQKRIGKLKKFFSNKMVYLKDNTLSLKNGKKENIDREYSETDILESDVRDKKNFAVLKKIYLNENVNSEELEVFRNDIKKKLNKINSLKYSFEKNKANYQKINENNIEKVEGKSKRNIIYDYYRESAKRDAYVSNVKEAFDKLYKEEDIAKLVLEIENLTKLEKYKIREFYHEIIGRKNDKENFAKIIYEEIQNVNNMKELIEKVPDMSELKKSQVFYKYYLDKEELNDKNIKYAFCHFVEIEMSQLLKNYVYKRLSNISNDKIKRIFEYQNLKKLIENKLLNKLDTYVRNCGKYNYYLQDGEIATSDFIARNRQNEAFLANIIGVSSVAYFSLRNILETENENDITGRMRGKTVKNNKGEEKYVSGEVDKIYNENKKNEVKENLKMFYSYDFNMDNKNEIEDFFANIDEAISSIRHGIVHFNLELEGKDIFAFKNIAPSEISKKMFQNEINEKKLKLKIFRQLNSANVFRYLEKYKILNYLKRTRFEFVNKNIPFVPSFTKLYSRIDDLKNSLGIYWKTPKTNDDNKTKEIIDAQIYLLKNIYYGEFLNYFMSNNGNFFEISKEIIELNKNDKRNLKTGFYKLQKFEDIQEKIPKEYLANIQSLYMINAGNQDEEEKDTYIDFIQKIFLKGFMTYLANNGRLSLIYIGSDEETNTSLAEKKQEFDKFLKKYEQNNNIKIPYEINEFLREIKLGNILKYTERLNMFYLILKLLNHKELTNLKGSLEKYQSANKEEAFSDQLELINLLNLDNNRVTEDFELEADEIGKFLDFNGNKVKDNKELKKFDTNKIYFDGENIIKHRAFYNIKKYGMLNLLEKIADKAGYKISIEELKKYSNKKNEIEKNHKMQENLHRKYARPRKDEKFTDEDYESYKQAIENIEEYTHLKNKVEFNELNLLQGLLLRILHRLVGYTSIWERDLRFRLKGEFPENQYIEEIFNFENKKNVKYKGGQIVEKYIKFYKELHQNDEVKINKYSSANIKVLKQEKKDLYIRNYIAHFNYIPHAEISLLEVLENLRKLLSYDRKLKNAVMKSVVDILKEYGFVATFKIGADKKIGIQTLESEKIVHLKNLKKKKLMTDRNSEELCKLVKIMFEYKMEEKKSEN
# B1: del crRNA 20 nt spacer ; perfect match target RNA (ssRNA ; ssRNA)
# RNA 1: GGCCACCCCAAAAAUGAAGGGGACUAAAACACAAAUCUAUCUGAAUAAAC
# RNA 2: GGGAAACCAAGAAGAAGAGUUUAUUCAGAUAGAUUUGUCACAGCAGAAGCCCACAC
# Target: T1, LbuCas13a R377A
# Test: cleavage_in_vitro; 10 nM; decreased about 50% vs WT; inactive at 100 pM
# Conditions: tags: His6-MBP-TEV (cleaved); hairpin in direct repeat
binder,measurement,value
B1,activity,~50 % of WT
